Holding throughout (conditions): protein: recombinant; tags: GST; label: fluorescein (RNA labelling mix)
The target of series [1] is T1, SXM (GST-SXL Drosophila) (Drosophila melanogaster, UniProt P19339 1-354).
T1 sequence: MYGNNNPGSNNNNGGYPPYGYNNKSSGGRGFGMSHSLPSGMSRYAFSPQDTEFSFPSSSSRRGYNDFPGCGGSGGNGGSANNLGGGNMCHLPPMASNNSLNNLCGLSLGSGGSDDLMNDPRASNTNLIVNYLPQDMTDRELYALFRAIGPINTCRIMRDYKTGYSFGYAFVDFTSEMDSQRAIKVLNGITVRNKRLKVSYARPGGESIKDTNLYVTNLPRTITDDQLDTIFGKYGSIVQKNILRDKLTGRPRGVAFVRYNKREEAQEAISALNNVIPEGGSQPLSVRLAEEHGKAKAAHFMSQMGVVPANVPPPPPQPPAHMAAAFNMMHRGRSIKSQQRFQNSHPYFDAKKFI
The series is described as follows: EMSA; apparent Kd, Hill fit; error 95% CI; 20 mM Hepes pH 8.0, 0.1 M KCl, 0.5 mM EDTA, 1 mM DTT, 0.05% NP40, 20% glycerol, 3 µg yeast tRNA; 5 min on ice, then 10 min at room temperature with RNA; 5% native PAGE, 0.25x TBE.

In series [2] the target is T2, SXS (GST-SXL Sciara) (Sciara ocellaris, UniProt Q86QM9 1-287).
T2 sequence: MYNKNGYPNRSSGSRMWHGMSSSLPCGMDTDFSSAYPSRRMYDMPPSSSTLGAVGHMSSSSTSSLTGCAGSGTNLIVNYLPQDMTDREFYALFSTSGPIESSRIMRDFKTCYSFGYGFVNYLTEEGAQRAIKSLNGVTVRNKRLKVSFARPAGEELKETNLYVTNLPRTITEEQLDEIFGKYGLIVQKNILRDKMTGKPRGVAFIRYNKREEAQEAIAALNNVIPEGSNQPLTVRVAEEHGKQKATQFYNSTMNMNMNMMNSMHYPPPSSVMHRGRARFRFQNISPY
The series is described as follows: EMSA; Hill n=1; error 95% CI; 20 mM Hepes pH 8.0, 0.1 M KCl, 0.5 mM EDTA, 1 mM DTT, 0.05% NP40, 20% glycerol, 3 µg yeast tRNA; 5 min on ice, then 10 min at room temperature with RNA; 5% native PAGE, 0.25x TBE.

In series [3] the target is T1, SXM (GST-SXL Drosophila). Description: EMSA; cooperative, Hill n>2; error 95% CI; 20 mM Hepes pH 8.0, 0.1 M KCl, 0.5 mM EDTA, 1 mM DTT, 0.05% NP40, 20% glycerol, 3 µg yeast tRNA; 5 min on ice, then 10 min at room temperature with RNA; 5% native PAGE, 0.25x TBE.

As for ACAUAUUUUUUUUCACAGC (ssRNA) [single poly(U) SXL site], the Kd in series [1] is 150000 ± 20000 nM.

Regarding CAUGAUUAUUUUUUUUUAUUUUUUUUCGGUGA (ssRNA) [double poly(U) SXL site], the Kd in series [2] was 300 ± 200 nM; in series [3], 500 ± 300 nM.

The values are drawn from publication PMC3677924, “Biochemical and Functional Analysis of Drosophila-Sciara Chimeric Sex-Lethal Proteins”.
